Data on 3 substances can be found in PMC5809500.

Assay [1] concerns the target hFcRn coupled to the affinity column (analytical hFcRn affinity chromatography) (UniProt P55899). The assay is described as follows: analytical hFcRn affinity chromatography; hFcRn coupled to the column; 50 µl hIgG1 variant (1 mg/ml) injected, eluted by a linear pH gradient from pH 6.0 to 8.8 within 110 min (20 mM MES, 140 mM NaCl / 20 mM Tris/HCl, 140 NaCl).
In assay [2] the target is Truncated monomeric His-tagged hFcRn (three extracellular domains of the hFcRn HC with human β2-microglobulin) (human) (UniProt P55899).
The target of assay [3] is WT anti-NIP hIgG1 (chimeric hIgG1 with mouse lambda light chain, hIgG1 constant HC and a VH specific for NIP) (human | mouse). The assay is described as follows: MST; 20 nM NT-647-labelled hIgG1 variant constant, hFcRn titrated (60,000–0.3 nM); 100 mM phosphate buffer, 150 mM NaCl, 0.01% Tween 20, pH 5.5; 25 °C; Monolith NT.115.
In assay [4] the target is anti-NIP hIgG1-KF (H433K/N434F) (human | mouse). The assay is described as above.
Assay [5] concerns the target anti-NIP hIgG1-YTE/KF (M252Y/S254T/T256E/H433K/N434F) (human | mouse). Described as above.
The target of assay [6] is anti-NIP hIgG1-YTE (M252Y/S254T/T256E) (human | mouse). The description is as above.
Assay [7] concerns the target WT anti-NIP hIgG1 (chimeric hIgG1 with mouse lambda light chain, hIgG1 constant HC and a VH specific for NIP) (human | mouse). The assay is described as follows: MST; 20 nM NT-647-labelled hIgG1 variant constant, hFcRn titrated (60,000–0.3 nM); PBS, 0.01% Tween 20, pH 7.4; 25 °C; Monolith NT.115.
The target of assay [8] is anti-NIP hIgG1-LS (M428L/N434S) (human | mouse). The description is as above.
For assay [9], the target named is anti-NIP hIgG1-KF (H433K/N434F) (human | mouse). The description is as above.
Assay [10] concerns the target anti-NIP hIgG1-YTE (M252Y/S254T/T256E) (human | mouse). The assay is described as above.

“WT anti-NIP hIgG1 (chimeric hIgG1 with mouse lambda light chain, hIgG1 constant HC and a VH specific for NIP) (antibody)” showed a pH of the elution peak from the hFcRn column in assay [1] of 7 pH.
In the case of “anti-NIP hIgG1-YTE/KF (M252Y/S254T/T256E/H433K/N434F) (antibody)”, the reduction of recycling of WT anti-hexon hIgG1 (500 nM) by HMEC1-hFcRn cells (HERA, pH 7.4) with 2 µM YTE/KF; the pair blocked is WT hIgG1 and hFcRn in assay [2] came out at 50%.
Consider “Truncated monomeric His-tagged hFcRn (three extracellular domains of the hFcRn HC with human β2-microglobulin) (from UniProt P55899 24-297; P61769 21-119) (receptor)”, for which the Kd in [3] is 964 nM; in assay [4] it was 53.4 nM; in [5] it was 9.3 nM; in [6], 166 nM; in assay [7] it was above 60000 nM; in [8] it was 7000 nM. The dissociation constant (Kd) in assay [9] is 3300 nM; in assay [10], above 20000 nM.

Broadly, the Kd is the concentration at which binding is half-saturated. Read a low Kd as tighter binding.
